Experimental data reported in the DeepSol protein solubility set.

Assay: soluble on expression in E. coli; label from the status in PepcDB or PDB records

Sequence	soluble on expression in E. coli
MTNEEPVPSTSSVLSAAEKNVKIETPSRKRKGLDIDALWRKKFKDVENQKSPEKSEKSEKTIKEEPLETHPSGERKLRSASKDSKSLSKETHNTISTRSSSSGTPRKKMEPEDVKPNIKMLKKSLPVSFQCSNLNDGTVGDASVMLDPTKISLHSSSVAYGEESQDEMEVIQHSTDDPNGTREEFDYNQIEYGNAVTPNGTYTLYAPDSNYAPYYQYSNNMQSSPQDNAPYLVPAPQSPVSIDDADSINLPNNQRASPATVNWLFENYEIGEGSLPRCELYDHYKKHCAEHRMDPVNAASFGKLIRSVFHNLKTRRLGTRGNSKYHYYGIRLKDSSTLHSMQHPQPQIIQNTYTPPMQLPQRDAYADTVNQVAAIKYMDVEIPDKRARKDNSSSSSSCRDSVSPCMDLPAQQTIQHTPVHSVIPSTQQPAPLHNNNVVSYVVTESDKAAMGKIDLPIVPFPDKDALMATIGFRKLGVGEEELNSLIDIYEILCREILALIKNIDFASVEDTWSKFWSGNFGVDRDHISALCTLDQVQDYIIEVDLALYQTIVDTLIPNVLLSELSTGMTQTCRTFAKNIDVYLRKSLMLANLGEFFVKKKIQAIKYLQQGLKRYTSLNHLAHASRGVLMKPEQVQQMYQDYIRVDINTVHQQAGWICGCDSVMVHHVNNAFKHNLQRMSAMEVWAEWLESIVDQVLAKYHDKPANVIANVGKQFLLNWSFYTSMIIRDLTLRSAMSFGSFTLIRLLADDYMYYLIESKIAKAGKQQLITVIRADKDWPLTTNPQEYIVVANDNDEDLDLEKAGLL	not soluble
MTNIEILENMLKLQQKLNDETNGLNWENGYTKEGKLISWRRCIYMECAELIDSFTWKHWKNISSLTNWENVRIEIVDIWHFILSLLLEEYRDKNNKDFKAIATEVNAVSVFQDFCKEEEYPNEGDIYGILNDIELIIHKCSGFGFNLGELLSTYFTLAIKCGLNLEILYKTYIGKNVLNIFRQNNGYKDGSYKKTWNGKEDNEVLAQILEQELDFDTIYKKLEECYKKA	soluble
MTNSIRIGTRKSPLALIHTNLVIQQIKQFFPDINCEIVPIITSGDLIQNKPLYDIGGKALFLKEIEQALLDKKIDLAVHSLKDVPGRMPEPLVIAAVLEREDPRDVFVCLKYKSIEELPQNAVIGSSAVRRKAFIQKIRPDLKVTVFRGNVDSRIKKLMTGEVDATILAYTGLKRLEVFNPEYCHLIEYSQMLPCIGQGVIAVEIRKDDNAMLEICNQINHLPTFELIKPERAFLEYLDANCRTPIAAYSQYLDANPRHLSKLAYREVLEGNTEALATAAYKSNRTDASTGLTYKLPLEVEFGKVSNIQTNFMLGNLDGSKITFHTETTNIKTSTEAGIKAAKMMLEAICK	soluble
MTNSQTVSLIGPTQMAPQSTPPPPVNELWFIDAQAMFQNYANLRSFSKSNANEINTTIGGFVFGRKARKQVIHVLFAYAEDLTESNRQFLESSLSADIELVGNLNIDGQSQILPGGQFTLQLTSRMLENRSISEFLDMNVMFNNEHVLMEGASCVSRVGYEWSLRAGREQEDVKSAAERLSMASFRFTYLNAEHGLVIREQKPEAAQQKYLDKFSKGAVPYKDVIEFTAMQSLTRDTSNDTEDQKLVPTVKVTKDNKHFTRLVTIGEVVFPAFFGDSSLDLYKRSREAFNRRANNTMMVTVNGIRAGRGVTTTTSATYLPPGWVSLLHLQLPTKWTDNEQRNYRIRLHKLFNLPSSKPVLRLSQALALHSESARLTNKKLIREPHLSITNYQPVGEITTVNGPYNYHHYMQDGIDDSGWGCAYRSFQTIWSWFILNGYTDKPVPSHREIQQALVDIQDKQAKFVGSRQWIGSTEISFVLNELLKLECRFIATNSGAEVVERVRELARHFETSGTPVMIGGNMLAHTILGVDFNDTTGETKFLVLDPHYTGSEDIKTITSKGWCAWKPASFWSKDHFYNMVLPQPPSDAI	not soluble
MTPIPLINIPLCNLAGDGYILSEKSQSQNMLRGIVMSETVRVGLLGYGYASKTFHAPLIAGTAGMELVAVSSSNAEKVHADWANLRVEKDPQALFSDPDIDLIVIPTPNDTHFPLAKQALEAGKHVVVDKPFTVTLSQAYDLGAIAERAGKVLSVFHNRRWDSDFLTLKQLLSAGTLGNVVYMESHFDRFRPEVRQRWREDGSEGSGIWYDLGPHLLDQALELFGLPVAIQVDMAQLRPGSKATDYFHATLIYPQRRVILHASMLVAAASARYTVHGTRGSFVKYGLDPQEDRLKAGERPPLADWGQDKHDGVLTLSRDGITAEQTIATIPGNYPAYYAAVRDALLGKGENPVGVNQAIQVMELIELGLLSHEQKKAVALKNSLEHHHHHH	not soluble
MTPLVKDIIMSSTRMPALFLGHGSPMNVLEDNLYTRSWQKLGMTLPRPQAIVVVSAHWFTRGTGVTAMETPPTIHDFGGFPQALYDTHYPAPGSPALAQRLVELLAPIPVTLDKEAWGFDHGSWGVLIKMYPDADIPMVQLSIDSSKPAAWHFEMGRKLAALRDEGIMLVASGNVVHNLRTVKWHGDSSPYPWATSFNEYVKANLTWQGPVEQHPLVNYLDHEGGTLSNPTPEHYLPLLYVLGAWDGQEPITIPVEGIEMGSLSMLSVQIGLEHHHHHH	soluble
MTPPRMRISGENELVQALLEHGHVLVEASEAELIFDPTQLVRRGQIVAHLGHATLADLDAYSSGHAFVLTELMPQIYAVTASDELAGMVAELLISELGGRVVHVPESQRDRLTAGLACAGFIGQVRSEARNLLTEALGNAHHADEVVEQLTDAVAPPLNVAALERGYHAIDSVGTKRLYAQLARRSGEVFRNNDVELWAMNQEQNNT	not soluble
MTQAIKRVGVTDVVLRDAHQSLFATRLRIDDMLPIAQQLDQIGYWSLECWGGATFDSCIRFLGEDPWQRLRLLKQAMPNTPLQMLLRGQNLLGYRHYADDVVDTFVERAVKNGMDVFRVFDAMNDVRNMQQALQAVKKMGAHAQGTLCYTTSPVHNLQTWVDVAQQLAELGVDSIALKDMAGILTPYAAEELVSTLKKQVDVELHLHCHSTAGLADMTLLKAIEAGVDRVDTAISSMSGTYGHPATESLVATLQGTGYDTGLDIAKLEQIAAYFRDVRKKYHAFEGMMKGSDARILVAQVPGGMLTNMESQLKQQNALDKLDLVLEEIPRVREELGFLPLVTPTSQIVGTQAVINVVLGERYKTITKETSGVLKGEYGKTPAPVNTELQARVLAGAEAITCRPADLIAAEMPTLQDRVLQQAKEQHITLAENAIDDVLTIALFDQVGWKFLANRHNLEHHHHHH	soluble
MTQMKIFVIGAHGQIGKKIVSKLVAQGDQVYAGIRQPEQAEAFEDAGAQPVQFNLMAQPEDLALAFNGMDAIVFAAGSGGQTGYDMTLMIDLDGAVKSMVAAKIAGVKRYVIISAEFTPDRSRWPRALQPYYVAKYYADEWLKNRTQLDYTILQPGTLINDAGTGKVTVNPDVGGEITRDDVATFTVQTLHTPATVGKTIALINGDTPISKAVQQA	not soluble
MTQVIIDGDACPVTNSIIELTKGTGIFVTVVRSFSHFSTVIQPEHVNIIYVDDGPDAVDYRIVKLVHSDDLVVTQDYGLASLLLNKAKIVMHHKGFIYNQENINTLLEQRHASAQFRKSGLEHHHHHH	not soluble
MTRDEMRYMLETEGVLENEELEMLQGVFSLDTKVAREVMVPRTDAFMVDIQDDVQENINLILGENYSRIPVYSEDKDKIVGILHTKTLLKAARNLGFENIELGAIIQEPLFVPETIFIDDLLYELKRTQNQMAILLDEYGGVVGLATLEDLLEEIVGEID	not soluble
MTRHQTHLPFHIVQEGNSIDKPPYSYVALIAMAIDASPDKRMTLNQIYKFIEAKFPYYRDADAKRKQGWQNSIRHNLSLNDCFVKKARDGQSCANDRKGNYWQMVADNAPQFDNGNFKRRRVKRLGIGKMGYANTTETTETGTILQQQLPFFNGLKWPQNIQTMDPFQFFKFQYPNSITDSANTSQINNSSSSSSSFDTSIYTSAFPIPTSHFDTNLVAPSQPPPVVSDVEVVPSDTVKEEVLVDMKPLIPGISSTTFLTSLQMTDPRSIEQQQLLSTASNMYPNAFMPPYTNWSCQPTTTFTGLSFDDPSLYGYGQQFPASS	not soluble
MTRIAIVGAGPAGLSLAYFLKGSRKVEATVYESMPEPGLKPCAWGLITGIENIIPIPNETIISEIRGFRIYLDNKLVFDIRTDNKLGYIIDKPLFLKRLSQEVNVEFNSKVVKKDDKYYINDKSLDHDKVIFATGHYSVSKSMSIPAIQYITDYEIDKEVVEFYFYSGFLGYAWVFPDREGSKIGIGGYAEVPELKERLKQILKGRIRTFHGARVTDYGVIEDRLDGNYTGEALGTVYAITGEGIRPSIISSKILADSILNRKDFKKEFKKSKLYWSLNWHAKIIKMTKENDPGTARLSKALLNNDPQLILKFAIGEFNRVDLIKIFGRSLILEHHHHHH	soluble
MTRIISIVSGKGGTGKTTVTANLSVALGEMGRKVLAVDGDLTMANLSLVLGVDDVNITLHDVLAGDAKLEDAIYMTQFENVYILPGAVDWEHVIKADPRKLPEVIKSLKGKYDFILIDCPAGLQLRAMSAMLSGEEAILVTNPEISCLTDTMKVGMVLKKAGLAILGFILNRYGRSERDIPPEAAQDVMDVPLLAVIPEDPVIREGTLEGIPAVKYKPESKGAQAFIKLAEEVDKLAGIKAKI	soluble
MTRSVSHPPYADPFAHPPETSPQELTAQLTPGARFQDVRFENYRPNPEFPSQAQARDQLAEFVRQAGQKASGGGFWPFKRRAPEGRGFYLDGGFGVGKTHLLASAYHAAKGQSGGSGGDVAFMSFQDLMYLIGALGMPQAIETFRNYKLLLIDEFELDDPGNTHMANTFLGGLMPSGVSVVATSNTEPGALGAGRFNAEDFQRQIQGIADRFGPHRIDGPDYRQRGTEPAQPLSEAEFAAWLARQNPQTTALMTHAELNRALLSVHPSRFARVLEQVSGVAVTNLEPMPEQGEALRFVHFVDKVYDLGLSAAFTGVPLNALFDDIYRNGGYAKKYSRALSRLSEMLREARGLEHHHHHH	not soluble
MTRVLVLGGGSGGLVAANKVKRLLGKEVEVTLVDRNTHHEFMPAYPWVAFGMREPEAIRRPLANLEKRGIRYLQATVEALDPERNRVKTTAGELSYDYLIVSLGAEALPSPAQDGHAPWSLEGALKLREALRTFKGGKVVVGVSSPYYPCPPAPYEVAGQVEFALKVKGVRDKSTVEVFHLNPAPLAGMGPVISGKVLEILKSKGIAFHGGFEPVEFAGGKVKAKDGRELSYDLLILTPPFAPNRVVRESPLAGPQGFPEVDRMTFRSPRFPNVFVIGDTVNPALMLPPAGVVAHFQGEYVAGVIASDLKGAYIGEPFNPVAMCIMDFGDNALLPQCAFDRVLAGTGMPSCGVMAVGKWVRVTKMLFEGFWFATLIELEHHHHHH	soluble
MTSAPMSNPSSTSSVVTAAMLAIGDELLSGRTKDKNIGHLADVLTMSGIDLKEVRIVADEEESIVEALNALRSRYDYVFTSGGIGPTHDDITADAISAAFGLPCEHDAEALRLLGDMYRVREMEFTEARKRMARMPKGAAHIANPVSVAPGFVIGNVYVMAGVPQVFQAMLDNVMPTLRTGAKVMSQAVRSPYGEGDIGTPLTAIQKAHPETSIGSYPKYDGQRFSTEIVVRARDAGLLKAATEAVAAMIEAIGQEKQLAASKGDATA	not soluble
MTSAWNEEWRRRRLPALAGQEWDLIVVGGGISGAGILREAARRGWRCLLLEQRDFAWGTSSRSSKMVHGGLRYIAKGQWRLTRDSVRERQRLLGEAPGLVEPLSFVMAHYRGGFPGPRLFGGLLSVYDALAGRRNHRFYDAAALRYLAPGLKEQRLLGGTRFFDAVTDDARLVLRVLAEARHDGGEAFNGMRVRELLREGGQVVGLRAEDRESGELFDFRCRALALATGAWADELRQPGGSEHIRPLRGSHLLLPAWRLPVAHAFSFMHATDRRPVFVFPWEGATVVGTTDLDHRDGLGEDARISRAELDYLLAACAQQFPAAAIEARDVLSTWAGVRPVVSSGDDSGKPSDEKREHVLWREPGCVTLAGGKLTTFRPLAVEVLQACAPLLGRTVTDDGAAVFGACEGPLIDGLGSGQRRRLAGRYGRDLVRLKRLVDTLGTDCVGASETLWAELAFAAEAEMVLHLDDLLLRRTRLGLLLPGGGAAYLPRIRALCQARLGWDDPRWEREQQAYLDLWRRHYSLPVLEHHHHHH	not soluble
